Assay results from the supplement of paper PMC11780869.

System: Bacillus subtilis
Test: cleaved RNA product abundance (RNA/gDNA barcode ratio) relative to median wild-type variant (ratio to wild type); higher = more accumulation of the downstream cleavage product
Settings: cleavage site: cggR-gapA (positions -7 to +36 mutated)
Description: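 MPRA in B. subtilis. Mutagenized RNase Y cleavage-site regions (9% mutation rate) were inserted into a barcoded reporter mRNA (truncated aprE or tetM). Cells were grown in LB at 37°C to OD600 0.3. The cleaved RNA isoform was gel-purified and its barcodes counted; the RNA:gDNA barcode ratio was normalised to the median wild-type variant, and the median over barcodes is reported per variant. The printed sequence is the variable window only; the reporter flanks are not printed.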

[1] = experiment (reporter, strain, medium): exp 6: tetM reporter, strain 168
[2] = experiment (reporter, strain, medium): exp 4a: truncated aprE reporter, strain BJT201 with 2% xylose (RNase J1 expressed)
[3] = experiment (reporter, strain, medium): exp 2b: truncated aprE reporter, strain BJT200

| Sequence | cleaved RNA product abundance [1] | cleaved RNA product abundance [2] | cleaved RNA product abundance [3] |
| --- | --- | --- | --- |
| ACAGACGAAGGAGACGCAAAGAAGTTATTAAGGGATGAATAATCCCTCAATATAAATATCTCTCACTTATTTAAA | 1.03 | – | – |
| ACAGACGAAGGAGCCACAAAGAAGTTATTAAAGGATGAATAATCCCTCAATATAAATATCTCTCACTTATTTAAA | 0.254 | – | – |
| ACAGACGAAGGAGCCACAAAGAAGTTATTAAGGGATGAATAATCCCTCAATATAAATATCTCTCACTTATTTAAA | 1.09 | – | – |
| ACAGACGAAGGAGCCCCAAAGAAGTTATTAAGGGATGAATAATCCCTCAATATAAATATCTCTCACTTATTTAAA | 1.36 | – | – |
| ACAGACGAAGGAGCCGAAAAGAAGTTATTAAGGGATGAATAATCCCTCAATATAAATATCTCTCACTTATTTAAA | 0.794 | – | – |
| ACAGACGAAGGAGCCGAATAGAAGTTATTAAGGGATGAATAATCCCTCAATATAAATATCTCTCACTTATTTAAA | 0.727 | – | – |
| ACAGACGAAGGAGCCGCAAAAAAATTATAAAGGGATGAATAATCCCTCAATATAAATATCTCTCACTTATTTAAA | – | 0.268 | – |
| ACAGACGAAGGAGCCGCAAAAAAATTATTAAGGGATGAATAATCCCTCAATATAAATATCTCTCACTTATTTAAA | – | 1.04 | 1.1 |
| ACAGACGAAGGAGCCGCAAAAAAATTATTAAGGGATGAATAATCCCTCATTATAAATATCTCTCACTTATTTAAA | – | 0.267 | – |
| ACAGACGAAGGAGCCGCAAAAAACTTATTAAGGGATGAATAATCCCTCAATATAAATATCTCTCACTTATTTAAA | – | 0.479 | – |
| ACAGACGAAGGAGCCGCAAAAAACTTATTAAGGGATGATTAATCCCTCAATATAAATATCTCTCACTTATTTAAA | – | – | 0.325 |
| ACAGACGAAGGAGCCGCAAAAAAGATATTAAGGGATGAATAATCCCTCAATATAAATATCTCTCACTTATTTAAA | 0.421 | 0.913 | – |
| ACAGACGAAGGAGCCGCAAAAAAGCTATTAAGGGATGAATAATCCCTCAATATAAATATCTCTCACTTATTTAAA | – | 0.855 | 0.392 |
| ACAGACGAAGGAGCCGCAAAAAAGGTATTAAGGGATGAATAATCCCTCAATATAAATATCTCTCACTTATTTAAA | – | 0.879 | 1.78 |
| ACAGACGAAGGAGCCGCAAAAAAGTAATTAAGGGATGAATAATCCCTCAATATAAATATCTCTCACTTATTTAAA | – | 0.342 | 0.304 |
| ACAGACGAAGGAGCCGCAAAAAAGTCATTAAGGGATGAATAATCCCTCAATATAAATATCTCTCACTTATTTAAA | – | 0.37 | – |
| ACAGACGAAGGAGCCGCAAAAAAGTGATTAAGGGATGAATAATCCCTCAATATAAATATCTCTCACTTATTTAAA | – | 0.583 | 0.276 |
| ACAGACGAAGGAGCCGCAAAAAAGTTAATAAGGGATGAATAATCCCTCAATATAAATATCTCTCACTTATTTAAA | – | 0.365 | 0.335 |
| ACAGACGAAGGAGCCGCAAAAAAGTTAATAAGGGATGAATATTCCCTCAATATAAATATCTCTCACTTATTTAAA | – | 0.21 | – |

| Sequence | cleaved RNA product abundance [1] | cleaved RNA product abundance [2] | cleaved RNA product abundance [3] |
| --- | --- | --- | --- |
| ACAGACGAAGGAGCCGCAAAAAAGTTACTAAGGGATGAATAATCCCTCAATATAAATATCTCTCACTTATTTAAA | – | – | 0.222 |
| ACAGACGAAGGAGCCGCAAAAAAGTTAGTAAGGGATGAATAATCCCTCAATATAAATATCTCTCACTTATTTAAA | – | 0.374 | – |
| ACAGACGAAGGAGCCGCAAAAAAGTTATAAAGAGATGAATAATCCCTCAATATAAATATCTCTCACTTATTTAAA | – | – | 0.14 |
| ACAGACGAAGGAGCCGCAAAAAAGTTATAAAGGGATGAATAATCCCTCAATATAAATATCTCTCACTTATTTAAA | – | 0.581 | 0.4 |
| ACAGACGAAGGAGCCGCAAAAAAGTTATCAAGGGATGAATAATCCCTCAATATAAATATCTCTCACTTATTTAAA | – | 0.507 | – |
| ACAGACGAAGGAGCCGCAAAAAAGTTATGAAGGGATGAATAATCCCTCAATATAAATATCTCTCACTTATTTAAA | – | 0.453 | – |
| ACAGACGAAGGAGCCGCAAAAAAGTTATTAAAGGATGAATAATCCCTCAATATAAATATCTCTCACTTATTTAAA | – | 0.224 | 0.164 |
| ACAGACGAAGGAGCCGCAAAAAAGTTATTAACGGATGAATAATCCCTCAATATAAATATCTCTCACTTATTTAAA | – | 0.128 | – |
| ACAGACGAAGGAGCCGCAAAAAAGTTATTAACGGATGAATAATCCTTCAATATAAATATCTCTCACTTATTTAAA | – | 0.191 | – |
| ACAGACGAAGGAGCCGCAAAAAAGTTATTAACGGATTAATAATCCCTCAATATAAATATCTCTCACTTATTTAAA | – | 0.142 | – |
| ACAGACGAAGGAGCCGCAAAAAAGTTATTAAGAGATAAATAATCCCTCAATATAAATATCTCTCACTTATTTAAA | – | 0.0994 | – |
| ACAGACGAAGGAGCCGCAAAAAAGTTATTAAGAGATGAATAATCCCTCAATATAAATATCTCTCACTTATTTAAA | 0.0928 | 0.133 | 0.126 |
| ACAGACGAAGGAGCCGCAAAAAAGTTATTAAGAGATGAATAATCCGTCAATATAAATATCTCTCACTTATTTAAA | – | 0.0894 | – |
| ACAGACGAAGGAGCCGCAAAAAAGTTATTAAGAGATGAATAATTCCTCAATATAAATATCTCTCACTTATTTAAA | – | 0.159 | – |
| ACAGACGAAGGAGCCGCAAAAAAGTTATTAAGCGATGAATAATCCCTCAATATAAATATCTCTCACTTATTTAAA | – | 0.123 | 0.091 |
| ACAGACGAAGGAGCCGCAAAAAAGTTATTAAGGAATAAATAATCCCTCAATATAAATATCTCTCACTTATTTAAA | – | – | 0.0862 |
| ACAGACGAAGGAGCCGCAAAAAAGTTATTAAGGAATGAACAATCCCTCAATATAAATATCTCTCACTTATTTAAA | – | 0.182 | – |
| ACAGACGAAGGAGCCGCAAAAAAGTTATTAAGGAATGAATAATCCCTCAATATAAATATCTCTCACTTATTTAAA | – | 0.156 | 0.112 |
| ACAGACGAAGGAGCCGCAAAAAAGTTATTAAGGCATGAATAATCCCTCAATATAAATATCTCTCACTTATTTAAA | – | 0.126 | 0.104 |

| Sequence | cleaved RNA product abundance [1] | cleaved RNA product abundance [2] | cleaved RNA product abundance [3] |
| --- | --- | --- | --- |
| ACAGACGAAGGAGCCGCAAAAAAGTTATTAAGGGAAGAATAATCCCTCAATATAAATATCTCTCACTTATTTAAA | – | 0.403 | 0.426 |
| ACAGACGAAGGAGCCGCAAAAAAGTTATTAAGGGACGAATAATCCCTCAATATAAATATCTCTCACTTATTTAAA | – | 0.54 | 0.676 |
| ACAGACGAAGGAGCCGCAAAAAAGTTATTAAGGGATAAATAATCCCTCAATATAAATATCTCTCACTTATTTAAA | – | 0.86 | 0.8 |
| ACAGACGAAGGAGCCGCAAAAAAGTTATTAAGGGATCAATAATCCCTCAATATAAATATCTCTCACTTATTTAAA | – | 0.712 | 0.923 |
| ACAGACGAAGGAGCCGCAAAAAAGTTATTAAGGGATGAAAAATCCCTCAATATAAATATCTCTCACTTATTTAAA | – | 0.695 | 0.785 |
| ACAGACGAAGGAGCCGCAAAAAAGTTATTAAGGGATGAACAATCCCTCAATATAAATATCTCTCACTTATTTAAA | – | 0.764 | 0.87 |
| ACAGACGAAGGAGCCGCAAAAAAGTTATTAAGGGATGAAGAATCCCTCAATATAAATATCTCTCACTTATTTAAA | – | 0.918 | – |
| ACAGACGAAGGAGCCGCAAAAAAGTTATTAAGGGATGAATAAACCCTCAATATAAATATCTCTCACTTATTTAAA | – | 0.631 | 0.468 |
| ACAGACGAAGGAGCCGCAAAAAAGTTATTAAGGGATGAATAAACCCTCTATATAAATATCTCTCACTTATTTAAA | – | 0.22 | – |
| ACAGACGAAGGAGCCGCAAAAAAGTTATTAAGGGATGAATAACCCCTCAATATAAATATCTCTCACTTATTTAAA | – | 0.458 | 0.455 |
| ACAGACGAAGGAGCCGCAAAAAAGTTATTAAGGGATGAATAAGCCCTCAATATAAATATCTCTCACTTATTTAAA | – | 0.793 | 0.639 |
| ACAGACGAAGGAGCCGCAAAAAAGTTATTAAGGGATGAATAATACCTCAATATAAATATCTCTCACTTATTTAAA | – | 0.17 | 0.139 |
| ACAGACGAAGGAGCCGCAAAAAAGTTATTAAGGGATGAATAATCACTCAATATAAATATCTCTCACTTATTTAAA | – | 0.12 | 0.108 |
| ACAGACGAAGGAGCCGCAAAAAAGTTATTAAGGGATGAATAATCCATCAATATAAATATCTCTCACTTATTTAAA | – | 0.307 | 0.17 |
| ACAGACGAAGGAGCCGCAAAAAAGTTATTAAGGGATGAATAATCCCACAATATAAATATCTCTCACTTATTTAAA | – | 0.254 | 0.237 |
| ACAGACGAAGGAGCCGCAAAAAAGTTATTAAGGGATGAATAATCCCCCAATATAAATATCTCTCACTTATTTAAA | – | 0.35 | 0.238 |
| ACAGACGAAGGAGCCGCAAAAAAGTTATTAAGGGATGAATAATCCCGCAATATAAATATCTCTCACTTATTTAAA | – | 0.231 | 0.141 |
| ACAGACGAAGGAGCCGCAAAAAAGTTATTAAGGGATGAATAATCCCTAAATATAAATATCTCTCACTTATTTAAA | – | 0.765 | 0.57 |
